Target: T1, α-2 macroglobulin (Homo sapiens (Human), UniProt P01023 24-1474, Native alpha-2-macroglobulin is a glycosylated homotetramer (disulfide-linked dimers) with an internal thioester; one subunit is given.)
T1 construct: also called alpha-2 macroglobulin
T1 sequence: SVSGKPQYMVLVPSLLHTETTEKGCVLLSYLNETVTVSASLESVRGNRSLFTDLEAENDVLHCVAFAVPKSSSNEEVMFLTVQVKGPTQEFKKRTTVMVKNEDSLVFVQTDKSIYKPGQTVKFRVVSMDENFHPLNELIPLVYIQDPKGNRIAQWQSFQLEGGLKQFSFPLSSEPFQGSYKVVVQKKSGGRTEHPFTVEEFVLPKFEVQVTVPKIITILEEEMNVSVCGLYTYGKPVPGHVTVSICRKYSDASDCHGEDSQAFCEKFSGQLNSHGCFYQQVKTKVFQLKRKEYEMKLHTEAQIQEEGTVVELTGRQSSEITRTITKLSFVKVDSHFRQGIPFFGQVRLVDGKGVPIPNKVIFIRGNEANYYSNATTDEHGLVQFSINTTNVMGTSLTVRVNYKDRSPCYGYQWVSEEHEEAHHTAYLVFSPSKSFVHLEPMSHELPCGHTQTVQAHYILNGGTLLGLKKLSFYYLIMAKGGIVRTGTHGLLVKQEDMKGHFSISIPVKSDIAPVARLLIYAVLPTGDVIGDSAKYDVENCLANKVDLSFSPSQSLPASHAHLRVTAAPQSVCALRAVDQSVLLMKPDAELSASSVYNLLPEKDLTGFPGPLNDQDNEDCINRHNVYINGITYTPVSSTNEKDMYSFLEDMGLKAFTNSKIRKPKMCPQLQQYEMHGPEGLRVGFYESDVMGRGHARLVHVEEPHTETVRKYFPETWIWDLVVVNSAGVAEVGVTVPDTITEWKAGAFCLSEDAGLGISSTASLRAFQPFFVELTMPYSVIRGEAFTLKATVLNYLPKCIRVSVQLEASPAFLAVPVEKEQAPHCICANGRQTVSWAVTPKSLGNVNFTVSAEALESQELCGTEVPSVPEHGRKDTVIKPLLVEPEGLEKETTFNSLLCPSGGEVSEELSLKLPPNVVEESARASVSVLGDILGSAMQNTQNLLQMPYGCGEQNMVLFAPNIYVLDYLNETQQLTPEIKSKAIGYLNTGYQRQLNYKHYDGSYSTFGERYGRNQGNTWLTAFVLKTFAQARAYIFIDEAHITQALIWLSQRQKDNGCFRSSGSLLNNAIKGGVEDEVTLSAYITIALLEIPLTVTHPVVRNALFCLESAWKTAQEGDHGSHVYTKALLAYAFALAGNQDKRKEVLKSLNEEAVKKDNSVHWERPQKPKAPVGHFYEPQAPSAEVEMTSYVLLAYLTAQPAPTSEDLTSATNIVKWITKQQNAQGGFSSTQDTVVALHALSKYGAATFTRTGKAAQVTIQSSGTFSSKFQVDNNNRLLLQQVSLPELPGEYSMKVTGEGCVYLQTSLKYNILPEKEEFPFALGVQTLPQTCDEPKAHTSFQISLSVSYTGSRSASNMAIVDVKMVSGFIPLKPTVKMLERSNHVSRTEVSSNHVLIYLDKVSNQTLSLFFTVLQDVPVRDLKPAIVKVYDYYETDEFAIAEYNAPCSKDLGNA
Test: competition binding assay, immobilized α-2 macroglobulin
Protocol: OP-1 was determined to interact specifically with α-2 macroglobulin in a standard competition binding assay, using immobilized, commercially available α-2 macroglobulin, and labeled and unlabeled OP-1 protein. […] This N-terminal portion of the protein, which is not part of the crystal structure, is positively charged and likely is highly flexible in solution.

- fold less affinity (against untruncated OP-1): 10 fold
B1: Truncated mature OP-1 (ligand, UniProt P18075 315-431, looked up)
chain: MANVAENSSSDQRQACKKHELYVSFRDLGWQDWIIAPEGYAAYYCEGECAFPLNSYMNATNHAIVQTLVHFINPETVPKPCCAPTQLNAISVLYFDDSSNVILKKYRNMVVRACGCH
notes: range 23-139; The range is on mature-protein numbering (His 139 = C-terminus); also called truncated mature OP-1 (first 22 amino acids cleaved by trypsin)

Source: patent US20020028453A1 (CURIS, published 2002)
